Test results taken from PMC11574021, “CEP192 localises mitotic Aurora-A activity by priming its interaction with TPX2” (The EMBO Journal, 2024).
Substitutions are numbered along the chain they refer to. Values joined by “and” are separate entries in the source; they are usually repeats but may differ in a detail not shown here. Equal values may be shown once. Where no end group is shown, it is not given here. FAM = 5(6)-carboxyfluorescein

Legend:
Aurora-A = conditions: fluorescence binding; ref Park et al. (2023) Figure 3B; cited from earlier work
From the text: page 11: cycle control) in these cell lines is still useful. […] As for combined depletion of CEP192 and TPX2, this was very toxic in both U251 and RPE1 cells, unsurprising given that both proteins are essential for proliferation.

[1] = target: T1, Aurora-A^CAKD (Aurora-A kinase domain, aa 122–403 C290A, C393A), unphosphorylated (human, UniProt O14965 122-403, C290A | C393A); test: fluorescence polarisation; direct fluorescence anisotropy: Aurora-A diluted across the plate, 50 nM tracer FAM-CEP192 501–533; 25 mM HEPES pH 7.5, 150 mM NaCl, 2 mM DTT, 5 mM MgCl2, 0.01% Tween 20; 1 h at room temperature; conditions: both partners purified
T1 construct: Aurora-A kinase domain, human, residues 122-403, variant lacking surface cysteines; also called Aurora-A 122–403 C290A C393A; unphosphorylated Aurora-A^CAKD; source: E. coli RIL, co-expressed with lambda phosphatase, purified (HisTrap, TEV cleavage, SEC); not shown: His6, N-terminal, cleaved
T1 sequence (looked up): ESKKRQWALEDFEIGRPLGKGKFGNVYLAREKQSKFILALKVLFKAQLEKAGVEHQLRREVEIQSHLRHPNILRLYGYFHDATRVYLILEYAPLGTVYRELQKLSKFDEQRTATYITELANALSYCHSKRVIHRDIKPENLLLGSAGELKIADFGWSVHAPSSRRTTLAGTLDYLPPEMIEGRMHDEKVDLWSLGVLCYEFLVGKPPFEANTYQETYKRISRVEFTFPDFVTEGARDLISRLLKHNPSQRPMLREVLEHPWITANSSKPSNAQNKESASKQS

[2] = target: T2, phosphorylated Aurora-A^CAKD (Aurora-A 122–403 C290A C393A, not co-expressed with lambda phosphatase) (human, UniProt O14965 122-403, C290A | C393A, phosphorylated (sites of this preparation not printed in the text shown)); test: as above; conditions: both partners purified
T2 construct: Aurora-A kinase domain, human, residues 122-403; also called phosphorylated kinase; Aurora-A 122–403 C290A C393A phosphorylated protein; source: E. coli B834, not co-expressed with lambda phosphatase, purified (HisTrap, TEV cleavage, SEC); not shown: His6, N-terminal, cleaved
T2 sequence (looked up): T1 sequence (looked up)

[3] = target: T3, Aurora-A^M7KD (Aurora-A 122–403 D274N C290A C393A N332A Q335A T347A D350A) (human, UniProt O14965 122-403, D274N | C290A | C393A | N332A | Q335A | T347A | D350A); test: as above; conditions: both partners purified
T3 construct: Aurora-A kinase domain, human, residues 122-403, with crystal-contact mutations in the C-lobe; also called Aurora-A^M7KD-D; Aurora^M7KD; source: E. coli, purified; not shown: His6, N-terminal, cleaved
T3 sequence (looked up): T1 sequence (looked up) with D153N, N211A, Q214A, T226A, D229A

[4] = system: His-tagged Aurora-A 122-403 or full-length (1-403); test: Pull-down of Aurora-A by GST-tagged CEP192; format: binding, human; conditions: Aurora-A 122-403 and 1-403, western blot
Protocol: GST-tagged CEP192 constructs were overexpressed in LB and purified on glutathione resin using standard methods. Tagged proteins were eluted in 100 mM TRIS pH 7.5, 500 mM NaCl, 1 mM DTT, 10% Glycerol, 10 mM reduced glutathione, before dialysis in elution buffer without glutathione and storage at −80 °C. About 250 μg of GST-tagged CEP192 constructs or GST as a control were immobilised on 50 μl of glutathione resin (GE healthcare) per sample equilibrated in pull-down buffer (50 mM tris pH 7.5, 300 mM NaCl, 1 mM DTT, 5 mM magnesium chloride, 10% glycerol, 0.1% Tween 20). After 60 min of immobilisation the beads were washed three times in 900 μl of binding buffer to remove any excess protein. About 35 μg of His-tagged Aurora-A 122–403 or full-length protein (1–403) was added to samples of immobilised truncation or GST control. These were left to bind for 60 min on the roller. The beads were pelleted and washed three times in 900 μl of binding buffer. The resin was resuspended in 100 μl of SDS loading dye. After separation on an SDS-PAGE gel, these were transformed onto nitrocellulose membranes before probing with anti-GST and anti-His primary antibodies.

[5] = target: T2, phosphorylated Aurora-A^CAKD (Aurora-A …); test: cell-based or functional assay
[6] = target: T1, Aurora-A^CAKD (Aurora-A kinase domain, …); test: ITC; 250 μM Aurora-A in the syringe, 25 μM CEP192 construct in the cell; 25 °C; 20 mM tris pH 7.5, 200 mM NaCl, 10% glycerol, 5 mM MgCl2; conditions: both partners purified
[7] = target: T2, phosphorylated Aurora-A^CAKD (Aurora-A …); test: as above; conditions: both partners purified
[8] = target: T1, Aurora-A^CAKD (Aurora-A kinase domain, …); test: fluorescence polarisation; competition: 25 μM Aurora-A kinase domain preincubated with 100 nM FAM-TACC3 522-536, CEP192 competitor serially diluted; 25 mM HEPES pH 7.5, 150 mM NaCl, 2 mM DTT, 5 mM MgCl2, 0.01% Tween 20; conditions: both partners purified
[9] = target: T1, Aurora-A^CAKD (Aurora-A kinase domain, …); test: fluorescence polarisation; competition: 10 μM unphosphorylated Aurora-A^CAKD preincubated with 100 nM FAM-TPX2 7-43, CEP192 competitor serially diluted; 25 mM HEPES pH 7.5, 150 mM NaCl, 2 mM DTT, 5 mM MgCl2, 0.01% Tween 20; conditions: both partners purified

In the case of “FAM-CEP192 506-536: labelled peptide of Park et al 2023”, the Kd (Aurora-A) is listed as 700 nM.

B1: FAM-CEP192 501–533 (peptide, UniProt Q8TEP8 501-533, looked up)
peptide: {FAM}-SDEMNEDFRSGSEAFDLIAQDEEEFNKEHQFIQ
notes: Made on Rink amide resin and labelled on resin after synthesis, so N-terminal label and C-terminal amide are likely; MS data of the peptides are in the source data; source: synthetic peptide
For B1, the Kd [1] was 420 nM and 1170 nM, the Kd [2] was 370 nM and the Kd [3] was 1250 nM.

B2: CEP192 405-649: GST-tagged CEP192 fragment 405-649 (protein, UniProt Q8TEP8 405-649, looked up, fragment)
chain: HMDGCLDTETPTVSIQENVDVASLKPISDSGINFTDAIWSPTCERRTCECHESIEKNKDKTDLPQSVVYQNEEGRWVTDLAYYTSFNSKQNLNVSLSDEMNEDFRSGSEAFDLIAQDEEEFNKEHQFIQEENIDAHNTSVALGDTSWGATINYSLLRKSRSTSDLDKDDASYLRLSLGEFFAQRSEALGCLGGGNNVKRPSFGYFIRSPEKREPIALIRKSDVSRGNLEKEMAHLNHDLYSGDLN
modifications: GST tag
For B2, the “co-precipitation of Aurora-A” value [4] was “able to interact significantly with Aurora”.

B3: human CEP192 468–533 (domain or fragment, UniProt Q8TEP8 468-533, looked up)
chain: PQSVVYQNEEGRWVTDLAYYTSFNSKQNLNVSLSDEMNEDFRSGSEAFDLIAQDEEEFNKEHQFIQ
notes: also called CEP192_(506-527_F); source: E. coli B834 RIL, purified (HisTrap, TEV cleavage, SEC); for crystallisation co-expressed with Aurora-A^M7KD and co-purified; not shown: His6, N-terminal, cleaved; SUMO, N-terminal, cleaved
With B3 the “ADP-Glo, 10 nM phosphorylated Aurora-A^CAKD with kemptide: IC50 of partial inhibition of kinase activity” value [5] was 18 nM, the Kd [6] was 80.6 nM and the Kd [7] was 134 nM. It also gave an IC50 [8] of 5000 nM and an IC50 [9] of 3700 nM.
